Test system: Escherichia coli TOP10
Assay: shrunken log2 fold change of peptide-encoding DNA abundance (4.5 h post-induction vs induction); higher = less antimicrobial activity (less host growth inhibition)
Details: time post-induction: 4.5 h; library: site-saturation at positions 5, 18, 19, 20
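Note: peptides expressed intracellularly from a pBAD plasmid library in pooled LB shake-flask culture, induced with 0.3% L-arabinose, DNA abundance read by NGS, three biological replicates, DESeq2 with apeglm shrinkage.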

Row | Sequence | shrunken log2 fold change
1 | RRIRHRPPRLPRPRPRPRTNPRP | 0.0589
2 | RRIRPRPPRLPRPRPRPSTIPRP | -0.552
3 | RRIRPRPPRLPRPRPRPQYYPRP | -0.422
4 | RRIRDRPPRLPRPRPRPIGTPRP | 0.208
5 | RRIRDRPPRLPRPRPRPAYEPRP | -0.0214
6 | RRIRSRPPRLPRPRPRPPDFPRP | 0.29
7 | RRIRYRPPRLPRPRPRPWTAPRP | -0.283
8 | RRIRGRPPRLPRPRPRPSCHPRP | 0.175
9 | RRIRARPPRLPRPRPRPLAQPRP | 0.578
10 | RRIRFRPPRLPRPRPRPMKLPRP | -0.0666
11 | RRIRSRPPRLPRPRPRPKFGPRP | -0.15
12 | RRIRNRPPRLPRPRPRPMKVPRP | 0.0279
13 | RRIRCRPPRLPRPRPRPGADPRP | 0.484
14 | RRIRPRPPRLPRPRPRPAPWPRP | 0.436
15 | RRIRARPPRLPRPRPRPIKSPRP | 0.226
16 | RRIRVRPPRLPRPRPRPSMCPRP | -0.528
17 | RRIRPRPPRLPRPRPRPSLMPRP | -0.155
18 | RRIRKRPPRLPRPRPRPEERPRP | 1.23
19 | RRIRCRPPRLPRPRPRPTNEPRP | -0.213
20 | RRIRTRPPRLPRPRPRPKRIPRP | 0.0762
21 | RRIRGRPPRLPRPRPRPDEGPRP | -0.001
22 | RRIRERPPRLPRPRPRPPNRPRP | -0.289
23 | RRIRLRPPRLPRPRPRPGLWPRP | 0.863
24 | RRIRWRPPRLPRPRPRPNGFPRP | 0.128
25 | RRIRYRPPRLPRPRPRPHEYPRP | -0.354

Row | Sequence | shrunken log2 fold change
26 | RRIRGRPPRLPRPRPRPSIKPRP | 0.47
27 | RRIRQRPPRLPRPRPRPTQDPRP | 0.508
28 | RRIRFRPPRLPRPRPRPQWNPRP | -0.345
29 | RRIRTRPPRLPRPRPRPESIPRP | -0.114
30 | RRIRGRPPRLPRPRPRPELSPRP | 0.169
31 | RRIRSRPPRLPRPRPRPTDIPRP | -0.489
32 | RRIRTRPPRLPRPRPRPVMGPRP | -0.0279
33 | RRIRYRPPRLPRPRPRPYNVPRP | -0.0198
34 | RRIRCRPPRLPRPRPRPSKGPRP | -0.212
35 | RRIRPRPPRLPRPRPRPIRCPRP | 0.125
36 | RRIRLRPPRLPRPRPRPMRGPRP | 0.839
37 | RRIRPRPPRLPRPRPRPCDAPRP | 0.375
38 | RRIRLRPPRLPRPRPRPALIPRP | -0.00882
39 | RRIRVRPPRLPRPRPRPRSTPRP | 0.0765
40 | RRIRDRPPRLPRPRPRPCELPRP | 0.0111
41 | RRIRARPPRLPRPRPRPSIEPRP | 0.0128
42 | RRIRQRPPRLPRPRPRPRQQPRP | -0.0145
43 | RRIRKRPPRLPRPRPRPMQGPRP | -0.00992
44 | RRIRHRPPRLPRPRPRPVGTPRP | 0.0773
45 | RRIRCRPPRLPRPRPRPRKSPRP | 0.126
46 | RRIRVRPPRLPRPRPRPHLCPRP | -0.137
47 | RRIRGRPPRLPRPRPRPMLNPRP | 0.477
48 | RRIRWRPPRLPRPRPRPEANPRP | 1.14
49 | RRIRTRPPRLPRPRPRPPTFPRP | -0.203
50 | RRIRVRPPRLPRPRPRPCVLPRP | -0.44

Row | Sequence | shrunken log2 fold change
51 | RRIRRRPPRLPRPRPRPFCTPRP | -0.13
52 | RRIRNRPPRLPRPRPRPATAPRP | 0.0174
53 | RRIRPRPPRLPRPRPRPKLKPRP | 0.105
54 | RRIRYRPPRLPRPRPRPWIRPRP | -0.371
55 | RRIRARPPRLPRPRPRPLTIPRP | 0.0223
56 | RRIRGRPPRLPRPRPRPRCEPRP | 0.782
57 | RRIRHRPPRLPRPRPRPHPWPRP | -0.0988
58 | RRIRDRPPRLPRPRPRPHELPRP | -0.124
59 | RRIRVRPPRLPRPRPRPNFDPRP | -0.0598
60 | RRIRGRPPRLPRPRPRPRGTPRP | 1.16
61 | RRIRVRPPRLPRPRPRPVYEPRP | -0.127
62 | RRIRPRPPRLPRPRPRPNLVPRP | -0.225
63 | RRIRLRPPRLPRPRPRPQRPPRP | 0.265
64 | RRIRARPPRLPRPRPRPYGWPRP | 0.0617
65 | RRIRKRPPRLPRPRPRPVKTPRP | 0.141
66 | RRIRDRPPRLPRPRPRPEHKPRP | 0.0114
67 | RRIRIRPPRLPRPRPRPAIGPRP | -0.207
68 | RRIRNRPPRLPRPRPRPWQKPRP | -0.18
69 | RRIRYRPPRLPRPRPRPIHDPRP | -1.22
70 | RRIRMRPPRLPRPRPRPQFFPRP | -0.207
71 | RRIRIRPPRLPRPRPRPQQTPRP | -0.169
72 | RRIRARPPRLPRPRPRPIIAPRP | 0.00311
73 | RRIRFRPPRLPRPRPRPWNIPRP | -0.0965
74 | RRIRWRPPRLPRPRPRPEVVPRP | -0.0122
75 | RRIRTRPPRLPRPRPRPIMYPRP | -0.347

Reference: the supplement of paper PMC9112550, “Optimization of the antimicrobial peptide Bac7 by deep mutational scanning” (BMC Biology, 2022)
